Measurements reported in patent publication US20250326862A1, “Antibody or Fragment Thereof Binding Specifically to Mertk, and Anti-Tumor Agent” (Chiome Bioscience Inc., priority 2021, published 2025).
Entries after “also recorded” stand apart in the source; their conditions may differ.

Assays:
[1] = molecular target: T1, binding of MerTK with Gas6 (Homo sapiens, UniProt Q12866); experiment: Test 6: ligand binding inhibition ELISA, MerTK with Gas6; settings: human MerTK 5 μg/ml immobilized; biotinylated Gas6 10 nM; FIGS. 13 and 15
T1 construct: purchased R&D Systems
T1 sequence (Q12866 26-499 limits assumed): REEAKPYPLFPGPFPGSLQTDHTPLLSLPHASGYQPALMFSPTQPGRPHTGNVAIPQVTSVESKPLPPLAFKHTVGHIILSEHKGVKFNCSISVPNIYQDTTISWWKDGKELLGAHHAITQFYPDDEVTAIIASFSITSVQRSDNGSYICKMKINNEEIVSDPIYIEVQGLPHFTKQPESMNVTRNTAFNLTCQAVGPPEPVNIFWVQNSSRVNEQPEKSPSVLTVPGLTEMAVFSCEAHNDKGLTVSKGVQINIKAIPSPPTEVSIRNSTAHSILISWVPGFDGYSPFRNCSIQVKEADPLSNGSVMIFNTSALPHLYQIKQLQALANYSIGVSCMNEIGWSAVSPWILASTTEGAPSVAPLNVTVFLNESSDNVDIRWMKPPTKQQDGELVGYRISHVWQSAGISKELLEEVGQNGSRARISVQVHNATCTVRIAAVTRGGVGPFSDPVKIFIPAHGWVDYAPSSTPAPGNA
Protocol: (§1) “20A77” and “24A1” were evaluated for the ability to inhibit binding of MerTK with various ligands. The MerTK ligands used were human Gas6 (R&D Systems) and human TULP1 (abcam plc.) which were respectively biotinylated using “Biotin Labeling Kit-NH” (Dojindo Laboratories Co., Ltd.). […] TULP1 is a ligand correlated with ocular toxicity, and an antibody having an activity to inhibit binding of MerTK with TULP1 may have ocular toxicity. Thus, an antibody having high inhibitory activity of binding to Gas6 and low inhibitory activity of binding to TULP1 may be an efficacious anti-tumor agent having low ocular toxicity.
(§2) The ligand binding inhibition test was carried out as indicated below. First, human MerTK (R&D Systems) was added to an ELISA plate (Nunc) at a concentration of 5 μg/ml and immobilized overnight at room temperature. After removing the immobilization solution, 1% BSA/PBS was added for blocking reaction and left to stand at room temperature for 1 hour. After the blocking, the plate was washed with 0.05% Tween 20/PBS and an antibody solution was added for primary reaction at room temperature for 1 hour. […] After washing, a chromogenic substrate solution of TMB (Dako) was added for chromogenic reaction for 20 minutes, 1 N sulfuric acid was added to terminate the reaction and the absorbance was measured at 450 nm.

[2] = molecular target: T2, binding of MerTK with TULP1 (Homo sapiens, UniProt Q12866); experiment: Test 6: ligand binding inhibition ELISA, MerTK with TULP1; settings: human MerTK 5 μg/ml immobilized; biotinylated TULP1 40 nM; FIGS. 14 and 16
T2 construct: purchased R&D Systems
T2 sequence (Q12866 26-499 limits assumed): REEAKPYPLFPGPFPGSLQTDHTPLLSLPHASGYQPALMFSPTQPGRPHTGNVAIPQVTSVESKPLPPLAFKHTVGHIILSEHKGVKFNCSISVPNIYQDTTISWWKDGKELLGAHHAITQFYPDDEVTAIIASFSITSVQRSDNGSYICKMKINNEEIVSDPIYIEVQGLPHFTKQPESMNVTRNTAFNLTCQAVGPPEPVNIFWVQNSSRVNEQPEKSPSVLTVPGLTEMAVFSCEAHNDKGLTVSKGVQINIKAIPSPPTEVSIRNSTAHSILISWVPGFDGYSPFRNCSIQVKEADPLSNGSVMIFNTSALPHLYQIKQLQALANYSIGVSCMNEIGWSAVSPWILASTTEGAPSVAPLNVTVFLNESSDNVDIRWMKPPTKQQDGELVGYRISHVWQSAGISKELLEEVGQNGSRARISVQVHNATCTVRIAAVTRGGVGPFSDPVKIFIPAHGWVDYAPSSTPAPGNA
Protocol: as §1, §2

[3] = molecular target: T3, human MerTK on cells (EL4 cells stably expressing human MerTK); human melanoma cell line G361 intrinsically … (human, UniProt Q12866 21-999); experiment: inferred from inhibition of Gas6-induced MerTK phosphorylation on hMerTK-EL4 cells
T3 construct: whole, on cells; also called hMerTK-EL4
T3 sequence (looked up): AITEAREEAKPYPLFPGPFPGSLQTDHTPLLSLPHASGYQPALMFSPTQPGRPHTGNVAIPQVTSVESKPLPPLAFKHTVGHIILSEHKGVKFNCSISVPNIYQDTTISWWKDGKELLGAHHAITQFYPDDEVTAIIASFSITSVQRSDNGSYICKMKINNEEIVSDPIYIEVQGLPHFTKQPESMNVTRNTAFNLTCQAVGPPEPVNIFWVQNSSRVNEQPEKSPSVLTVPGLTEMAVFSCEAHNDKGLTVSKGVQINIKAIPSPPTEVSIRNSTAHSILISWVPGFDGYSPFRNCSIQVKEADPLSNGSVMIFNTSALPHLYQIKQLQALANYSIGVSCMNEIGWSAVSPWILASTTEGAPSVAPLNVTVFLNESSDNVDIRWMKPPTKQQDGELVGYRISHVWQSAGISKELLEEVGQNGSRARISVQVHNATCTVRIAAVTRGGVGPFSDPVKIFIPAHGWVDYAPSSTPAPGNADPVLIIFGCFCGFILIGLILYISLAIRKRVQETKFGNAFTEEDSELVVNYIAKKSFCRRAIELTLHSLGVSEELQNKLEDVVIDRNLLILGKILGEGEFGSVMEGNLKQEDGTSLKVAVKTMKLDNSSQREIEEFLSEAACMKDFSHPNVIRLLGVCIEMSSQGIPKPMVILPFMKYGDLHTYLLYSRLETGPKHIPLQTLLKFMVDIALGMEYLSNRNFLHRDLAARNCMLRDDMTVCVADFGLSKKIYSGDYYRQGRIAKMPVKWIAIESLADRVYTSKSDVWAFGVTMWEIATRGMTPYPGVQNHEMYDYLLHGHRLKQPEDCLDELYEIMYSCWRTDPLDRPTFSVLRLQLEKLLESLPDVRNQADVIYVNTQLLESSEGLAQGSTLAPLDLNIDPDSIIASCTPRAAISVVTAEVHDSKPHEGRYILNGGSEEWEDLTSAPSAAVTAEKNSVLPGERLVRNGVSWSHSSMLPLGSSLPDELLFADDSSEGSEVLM
Protocol: The cells (hMerTK-EL4) stably expressing human MerTK were cultured in a “DMEM high glucose medium” (Thermo Fisher Scientific Inc.) containing 10% FBS. After the cultivation, the cells were washed in PBS, suspended in a serum-free medium, plated in a 96-well plate at 1×10⁶ cells/well and incubated at 37° C. for 3 hours. After the incubation, the respective clones were added, the hMerTK-EL4 was allowed to react for 1 hour, stimulated with 200 nM human Gas6 (R&D Systems) for 10 minutes and centrifuged and collected. The collected hMerTK-EL4 was lysed in a cell lysis solution, and the level of the phosphorylated MerTK protein in the lysate was determined using “Human Phospho-Mer DuoSet IC ELISA” (R&D Systems). The cell lysis solution used contained 1% “IGEPAL CA-630” (SIGMA) and 1×concentration of “Halt Protease and Phosphatase Inhibitor Single-Use Inhibitor Cocktail” (Thermo Fisher Scientific Inc.) added to MilliQ water.
Among these 14 clones, “20A77” and “24A1” were selected as clones showing particularly high inhibitory activity and subjected to the following tests.

human MerTK = molecular target: T4, human MerTK (Homo sapiens, UniProt Q12866); experiment: MerTK phosphorylation inhibition test in hMerTK-EL4 cells stimulated with human Gas6; type: cell-based; design: expressed in transfected cells; host or cells: mouse lymphoma cell line EL4 (hMerTK-EL4); settings: hMerTK-EL4, antibody 1 hour, then 200 nM human Gas6 for 10 minutes; phospho-Mer ELISA; FIG. 1
T4 sequence (Q12866 21-999): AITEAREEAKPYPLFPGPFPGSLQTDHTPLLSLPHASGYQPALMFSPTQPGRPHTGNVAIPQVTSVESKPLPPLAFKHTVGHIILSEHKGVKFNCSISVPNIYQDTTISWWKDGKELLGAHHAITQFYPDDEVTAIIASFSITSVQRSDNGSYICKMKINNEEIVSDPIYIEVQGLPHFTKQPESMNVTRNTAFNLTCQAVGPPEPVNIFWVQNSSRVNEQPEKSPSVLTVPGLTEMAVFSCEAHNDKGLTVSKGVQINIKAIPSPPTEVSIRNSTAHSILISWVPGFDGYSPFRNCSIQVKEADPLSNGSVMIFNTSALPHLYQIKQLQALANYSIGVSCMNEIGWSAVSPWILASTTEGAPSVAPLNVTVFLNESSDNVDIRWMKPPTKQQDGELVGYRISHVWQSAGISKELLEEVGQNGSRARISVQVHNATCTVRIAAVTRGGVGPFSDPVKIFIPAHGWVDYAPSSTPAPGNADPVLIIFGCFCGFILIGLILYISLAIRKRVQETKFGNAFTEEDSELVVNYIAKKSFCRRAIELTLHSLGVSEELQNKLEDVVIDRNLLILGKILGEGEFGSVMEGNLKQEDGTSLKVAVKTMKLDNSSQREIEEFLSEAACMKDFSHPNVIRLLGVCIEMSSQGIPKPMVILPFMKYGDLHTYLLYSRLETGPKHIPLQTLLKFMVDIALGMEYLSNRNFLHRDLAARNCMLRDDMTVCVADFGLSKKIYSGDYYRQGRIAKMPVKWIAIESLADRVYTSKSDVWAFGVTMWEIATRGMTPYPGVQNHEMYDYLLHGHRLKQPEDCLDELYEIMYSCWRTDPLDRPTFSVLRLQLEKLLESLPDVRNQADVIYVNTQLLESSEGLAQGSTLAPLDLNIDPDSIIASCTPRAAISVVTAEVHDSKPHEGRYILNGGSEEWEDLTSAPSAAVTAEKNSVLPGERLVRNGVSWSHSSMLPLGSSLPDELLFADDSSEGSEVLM
Protocol: On the basis of the procedures indicated below, the clones were evaluated for MerTK phosphorylation inhibitory activity. Higher activity means higher binding ability to MerTK.
The cells (hMerTK-EL4) stably expressing human MerTK were cultured in a “DMEM high glucose medium” (Thermo Fisher Scientific Inc.) containing 10% FBS. After the cultivation, the cells were washed in PBS, suspended in a serum-free medium, plated in a 96-well plate at 1×10^6 cells/well and incubated at 37° C. for 3 hours. After the incubation, the respective clones were added, the hMerTK-EL4 was allowed to react for 1 hour, stimulated with 200 nM human Gas6 (R&D Systems) for 10 minutes and centrifuged and collected. The collected hMerTK-EL4 was lysed in a cell lysis solution, and the level of the phosphorylated MerTK protein in the lysate was determined using “Human Phospho-Mer DuoSet IC ELISA” (R&D Systems). The cell lysis solution used contained 1% “IGEPAL CA-630” (SIGMA) and 1×concentration of “Halt Protease and Phosphatase Inhibitor Single-Use Inhibitor Cocktail” (Thermo Fisher Scientific Inc.) added to MilliQ water.

B1: 20A77 (antibody, V domains shown)
VH: QVQLQQPGTELVKPGASVKLSCRASGNTFTSYWMHWVKQRPGQGLEWIGNINPSNGGTNYNEKFKSKATLTVDKSSSTAYMQLSSLTSEDSAVYYCARLNYYGFDGFAFWGQGTLVTVSA
VL: DIKMTQSPSSMYASLGERVTITCKASQDINSYLSWFQQKPGKSPKTLIYRANRLVDGVPSRFSGSGSGQDYSLTISSLEYEDMGIYYCLQYDEFPFTFGSGTKLEIK
notes: Mouse monoclonal antibody from a hybridoma clone (MerTK knockout mice); In Test 2 (1) the hybridoma clone was added
[1]
  inhibition of binding of Gas6 with MerTK: inhibited binding of Gas6 with MerTK; also recorded: strongly inhibited binding of Gas6 with MerTK
[2]
  inhibition of binding of TULP1 with MerTK: did not inhibit binding of TULP1 with MerTK
[3]
  binding result: binds
Human MerTK
  MerTK phosphorylation inhibitory activity: inhibited binding of Gas6 with MerTK and MerTK phosphorylation in a concentration dependent manner
